Consider one protein from PMC5874051, “Gene cloning of a neutral ceramidase from the sphingolipid metabolic pathway based on transcriptome analysis of Amorphophallus muelleri” (PLoS ONE, 2018).

Substrate in this data set: CCCCCCCCCCCCC/C=C/[C@@H](O)[C@H](CO)NC(=O)CCCCCCCCCCCNc1ccc([N+](=O)[O-])c2nonc12
Put plainly: hydrolysis of NBD-ceramide, reverse-phase HPLC with DAD detector; Michaelis-Menten and Lineweaver-Burk. Particulars: 37 °C, 1 h, pH of the kinetic assay not clearly stated, labelled compound. In kind it is biochemical, Amorphophallus muelleri.

B1: AmCDase (A. muelleri neutral ceramidase) (Amorphophallus muelleri) (protein)
chain: MEASSCSRDYKDHDGSFKIWLCVFLDLVLLNGRLVSRSSDYLVGLASYDITGPAADVNMMGYANAEQIVSGVHFRLRARAFIVAEPGGKRVAFVNLDACMASQLVTIKVLERLKTRYGDLYTAENVAISGIHTHAGPGGYLQYVTYIVTSLGFVRQSFDIIVDGIERSIIQAHDNLRPGSIIVNKGELLDAGVNRSPSAYLNNPYDERKKYSYDVDKEMTLLKFVDDEWGPVGSFNWFATHGTSMSRTNSLISGDNKGAAARFMEDWFKQKSTEPAEHDLFRSDDKLNEIPRRVSIIIPRPRENYKNFTQLASSFPATGGERVTSFLSSTQRVRSIFRQGNRPAFVSAFCQSNCGDVSPNVLGAFCIDTGRPCDFNHSTCNGKNELCYGRGPGYPDEFESTRIIGERQLKKAVDLFDTASEQIKGKVDYRHTYINFSQLKVTIPSSNGSEQVVKTCPAAMGFAFAAGTTDGPGAFDFTQGDEKGNPFWRLVRNLLKTPDKVQVECQLPKPILLDTGEMKQPYDWAPSILPLQILRIGQLVILSVPGEFSTMAGRRLRDAVKMMLTSSGNNEFDNNVHIVIAGLTNTYSQYVTTFEEYEIQRYEGASTLYGPHTLSGYIQEFKKLAAALLNKQTVEPGPAPPDLLKKQMSLLPGVVMDAAPLGFNFGDVSDDVPALSKFKEGDKVSATFWSGCPRNDLLTEGTFALVERLNGVDTWVPAYDDDDFSLRFRWSRPSKFSPYSQATIEWRIPKDAPAGVYRLRHSGATKGLIGCINHFTGTSSAFAVR
notes: Ni-NTA and Superdex 200
Take B1: the Km (as a rule, the substrate concentration at which the rate is half of its maximum) worked out at 34.51 µM.
